The values below come from publication PMC6783653, “TIP30 counteracts cardiac hypertrophy and failure by inhibiting translational elongation” (EMBO Molecular Medicine, 2019).

The test concerns the target T1, GST-tagged eEF1A1 (rat, UniProt P62630 1-462).
T1 construct: eEF1A1, rat, open reading frame BC128723.1; Cloned into pGEX-4T1, which should place GST at the N-terminus (surmise); also called GST-eEF1A1
T1 sequence (looked up): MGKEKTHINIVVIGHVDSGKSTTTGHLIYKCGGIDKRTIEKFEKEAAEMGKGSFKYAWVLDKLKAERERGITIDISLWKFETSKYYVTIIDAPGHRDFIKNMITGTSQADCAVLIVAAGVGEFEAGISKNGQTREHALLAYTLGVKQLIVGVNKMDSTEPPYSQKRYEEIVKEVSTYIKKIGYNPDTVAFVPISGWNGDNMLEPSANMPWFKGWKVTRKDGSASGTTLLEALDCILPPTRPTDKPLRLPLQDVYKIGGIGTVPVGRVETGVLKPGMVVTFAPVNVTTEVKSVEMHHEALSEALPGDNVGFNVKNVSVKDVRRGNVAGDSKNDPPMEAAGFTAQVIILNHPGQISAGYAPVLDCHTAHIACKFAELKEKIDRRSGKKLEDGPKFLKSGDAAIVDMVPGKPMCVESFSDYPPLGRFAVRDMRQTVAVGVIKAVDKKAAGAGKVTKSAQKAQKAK
Kind of test: pull-down; GST or GST-eEF1A1 on glutathione agarose beads, purified eEF1B2-His; purified TIP30-His added in increasing amounts. To be noted: both partners purified.

B1: purified eEF1B2-His (natural protein, rat, UniProt A6IPG1 1-225, looked up)
chain: MGFGDLKTPAGLQVLNDYLADKSYIEGYVPSQADVAVFEAISGPPPADLCHALRWYNHIKSYEKEKASLPGVKKSLGKYGPVSVADTTGSGAADAKDDDDIDLFGSDDEEESEDAKRLREERLAQYESKKAKKPAVVAKSSILLDVKPWDDETDMTKLEECVRSIQADGLVWGSSKLVPVGYGIKKLQIQCVVEDDKVGTDMLEEQITAFEDYVQSMDVAAFNKI
notes: eEF1B2, rat, open reading frame NM_001108799.2
On to B1, for which the binding result is on record as “binds”.
